# Results published in patent publication US20240016902A1.
# Legend:
# [1] = biological target: EIF4B (UniProt P23588); experiment: Flag-IP from HeLa cell lysate, mass spectrometry of eluate
# [2] = biological target: FLNA (UniProt P21333); experiment: as above
# [3] = biological target: HSPA1A (UniProt P0DMV8); experiment: as above
# [4] = biological target: PRMT5 (UniProt O14744); experiment: as above
# [5] = biological target: SPTAN1 (accession Q13813) (Homo sapiens (Human)) (UniProt Q13813); experiment: as above
# [6] = biological target: SPTBN1 (UniProt Q01082); experiment: as above
# [7] = biological target: TUBA1A (UniProt Q71U36); experiment: as above
# [8] = biological target: TUBA1C (UniProt Q9BQE3); experiment: as above
# [9] = biological target: TUBB (UniProt P07437); experiment: as above
# [10] = biological target: TUBB4B (UniProt P68371); experiment: as above
# [11] = biological target: WDR77 (UniProt Q9BQA1); experiment: as above
# [12] = biological target: DBN1 (UniProt Q16643); experiment: Flag-IP from HepG2 cell lysate, mass spectrometry of eluate
# [13] = biological target: EIF4B (UniProt P23588); experiment: as above
# [14] = biological target: FLNA (UniProt P21333); experiment: as above
# [15] = biological target: HSPA8 (UniProt P11142); experiment: as above
# [16] = biological target: POTEE (UniProt Q6S8J3); experiment: as above
# [17] = biological target: PRMT5 (UniProt O14744); experiment: as above
# [18] = biological target: SPTAN1 (accession Q13813-2) (UniProt Q13813); experiment: as above
# [19] = biological target: SPTBN1 (UniProt Q01082); experiment: as above
# [20] = biological target: VIL1 (UniProt P09327); experiment: as above
# [21] = biological target: WDR77 (UniProt Q9BQA1); experiment: as above
# [22] = biological target: HSPA8 (UniProt P11142); experiment: Flag-IP from HeLa cell lysate, mass spectrometry of eluate
# [23] = biological target: KRT1 (UniProt P04264); experiment: as above
# [24] = biological target: SPTAN1 (accession Q13813-2) (UniProt Q13813); experiment: as above
# [25] = biological target: TUBA1B (UniProt P68363); experiment: as above
# [26] = biological target: SPTAN1 (accession Q13813-3) (UniProt Q13813); experiment: Flag-IP from HepG2 cell lysate, mass spectrometry of eluate
# [27] = biological target: TUBA1B (UniProt P68363); experiment: as above
# [28] = biological target: TUBA1C (UniProt Q9BQE3); experiment: as above
# [29] = biological target: TUBB (UniProt P07437); experiment: as above
# [30] = biological target: TUBB4B (UniProt P68371); experiment: as above
# Chain of HSPA8 (P11142 2-646 limits assumed): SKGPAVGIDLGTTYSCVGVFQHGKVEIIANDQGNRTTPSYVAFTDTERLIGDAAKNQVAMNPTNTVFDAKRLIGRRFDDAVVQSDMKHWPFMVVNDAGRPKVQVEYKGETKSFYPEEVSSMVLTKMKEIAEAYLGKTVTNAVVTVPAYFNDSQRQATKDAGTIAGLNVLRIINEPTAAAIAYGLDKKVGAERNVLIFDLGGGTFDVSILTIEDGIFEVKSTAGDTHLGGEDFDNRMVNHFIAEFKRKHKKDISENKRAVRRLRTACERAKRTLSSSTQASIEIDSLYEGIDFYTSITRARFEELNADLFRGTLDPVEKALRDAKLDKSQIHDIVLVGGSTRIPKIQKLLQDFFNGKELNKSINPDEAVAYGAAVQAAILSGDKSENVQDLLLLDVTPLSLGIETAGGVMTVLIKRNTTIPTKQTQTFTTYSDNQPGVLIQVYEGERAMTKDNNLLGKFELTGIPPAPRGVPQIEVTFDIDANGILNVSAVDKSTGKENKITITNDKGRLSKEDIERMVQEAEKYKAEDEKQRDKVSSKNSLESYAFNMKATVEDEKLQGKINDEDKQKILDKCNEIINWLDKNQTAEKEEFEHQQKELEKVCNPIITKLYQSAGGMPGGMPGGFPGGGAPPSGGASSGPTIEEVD
# Chain of WDR77 (Q9BQA1 whole entry): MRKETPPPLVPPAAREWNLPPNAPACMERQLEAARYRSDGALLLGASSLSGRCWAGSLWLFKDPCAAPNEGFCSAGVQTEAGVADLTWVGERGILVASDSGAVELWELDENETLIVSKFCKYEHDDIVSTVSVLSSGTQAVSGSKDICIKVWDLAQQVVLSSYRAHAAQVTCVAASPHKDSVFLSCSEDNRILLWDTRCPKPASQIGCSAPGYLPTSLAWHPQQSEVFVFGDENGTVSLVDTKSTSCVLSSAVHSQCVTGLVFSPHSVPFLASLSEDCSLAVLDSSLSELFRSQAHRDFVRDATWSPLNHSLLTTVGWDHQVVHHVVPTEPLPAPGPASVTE
# Chain of TUBB (P07437 whole entry): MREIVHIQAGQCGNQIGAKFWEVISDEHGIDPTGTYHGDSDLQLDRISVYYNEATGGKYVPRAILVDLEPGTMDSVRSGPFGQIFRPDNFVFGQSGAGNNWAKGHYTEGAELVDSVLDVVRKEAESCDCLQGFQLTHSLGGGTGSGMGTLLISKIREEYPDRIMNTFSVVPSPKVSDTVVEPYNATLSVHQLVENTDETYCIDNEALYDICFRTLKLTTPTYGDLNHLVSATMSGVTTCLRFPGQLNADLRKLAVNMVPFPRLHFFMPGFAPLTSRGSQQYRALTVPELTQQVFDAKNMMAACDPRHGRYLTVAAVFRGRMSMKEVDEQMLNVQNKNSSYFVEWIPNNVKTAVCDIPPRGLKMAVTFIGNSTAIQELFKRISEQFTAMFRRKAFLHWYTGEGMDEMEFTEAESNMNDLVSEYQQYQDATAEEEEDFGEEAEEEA
# Chain of TUBA1B (P68363 whole entry): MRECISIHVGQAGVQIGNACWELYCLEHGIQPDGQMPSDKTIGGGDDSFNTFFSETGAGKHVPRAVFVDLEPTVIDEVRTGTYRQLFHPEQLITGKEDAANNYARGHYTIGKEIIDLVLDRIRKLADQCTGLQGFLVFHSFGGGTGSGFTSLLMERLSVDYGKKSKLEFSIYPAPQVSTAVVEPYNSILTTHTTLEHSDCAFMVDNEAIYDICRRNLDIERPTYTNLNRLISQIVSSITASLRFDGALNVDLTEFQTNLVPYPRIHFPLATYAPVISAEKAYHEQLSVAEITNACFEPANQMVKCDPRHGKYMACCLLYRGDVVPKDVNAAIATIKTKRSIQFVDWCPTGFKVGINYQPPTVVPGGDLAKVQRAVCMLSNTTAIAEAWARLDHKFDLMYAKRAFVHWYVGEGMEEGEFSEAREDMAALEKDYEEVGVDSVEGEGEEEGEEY
# Chain of HSPA1A (P0DMV8 2-641 limits assumed): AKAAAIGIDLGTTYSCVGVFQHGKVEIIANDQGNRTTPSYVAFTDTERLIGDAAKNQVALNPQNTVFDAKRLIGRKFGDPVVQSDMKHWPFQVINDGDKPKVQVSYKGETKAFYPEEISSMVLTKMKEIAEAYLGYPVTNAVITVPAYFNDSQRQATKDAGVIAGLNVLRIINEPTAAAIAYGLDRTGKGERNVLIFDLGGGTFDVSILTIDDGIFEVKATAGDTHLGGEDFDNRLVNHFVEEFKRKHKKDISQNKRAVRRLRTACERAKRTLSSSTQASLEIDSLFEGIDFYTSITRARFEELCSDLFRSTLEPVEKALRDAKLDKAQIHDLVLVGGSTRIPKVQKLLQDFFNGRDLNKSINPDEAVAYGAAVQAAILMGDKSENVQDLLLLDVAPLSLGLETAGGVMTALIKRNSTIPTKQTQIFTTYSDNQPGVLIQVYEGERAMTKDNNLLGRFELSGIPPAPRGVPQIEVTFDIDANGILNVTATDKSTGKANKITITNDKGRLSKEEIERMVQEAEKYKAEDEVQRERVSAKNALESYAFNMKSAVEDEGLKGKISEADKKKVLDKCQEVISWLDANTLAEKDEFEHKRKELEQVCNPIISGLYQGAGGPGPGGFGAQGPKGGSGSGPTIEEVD
# Chain of TUBA1C (Q9BQE3 whole entry): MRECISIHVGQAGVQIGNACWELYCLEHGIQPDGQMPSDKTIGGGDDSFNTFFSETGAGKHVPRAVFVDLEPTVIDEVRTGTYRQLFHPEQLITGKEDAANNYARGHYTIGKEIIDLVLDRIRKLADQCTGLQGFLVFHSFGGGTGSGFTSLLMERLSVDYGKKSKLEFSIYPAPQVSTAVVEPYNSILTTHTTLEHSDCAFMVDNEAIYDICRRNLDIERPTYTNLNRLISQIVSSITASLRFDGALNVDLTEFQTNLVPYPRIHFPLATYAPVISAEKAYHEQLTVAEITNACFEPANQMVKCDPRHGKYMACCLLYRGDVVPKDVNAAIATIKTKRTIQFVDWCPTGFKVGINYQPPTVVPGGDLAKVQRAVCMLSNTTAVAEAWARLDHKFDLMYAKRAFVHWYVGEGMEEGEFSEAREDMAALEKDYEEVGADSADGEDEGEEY
# Chain of PRMT5 (O14744 2-637 limits assumed): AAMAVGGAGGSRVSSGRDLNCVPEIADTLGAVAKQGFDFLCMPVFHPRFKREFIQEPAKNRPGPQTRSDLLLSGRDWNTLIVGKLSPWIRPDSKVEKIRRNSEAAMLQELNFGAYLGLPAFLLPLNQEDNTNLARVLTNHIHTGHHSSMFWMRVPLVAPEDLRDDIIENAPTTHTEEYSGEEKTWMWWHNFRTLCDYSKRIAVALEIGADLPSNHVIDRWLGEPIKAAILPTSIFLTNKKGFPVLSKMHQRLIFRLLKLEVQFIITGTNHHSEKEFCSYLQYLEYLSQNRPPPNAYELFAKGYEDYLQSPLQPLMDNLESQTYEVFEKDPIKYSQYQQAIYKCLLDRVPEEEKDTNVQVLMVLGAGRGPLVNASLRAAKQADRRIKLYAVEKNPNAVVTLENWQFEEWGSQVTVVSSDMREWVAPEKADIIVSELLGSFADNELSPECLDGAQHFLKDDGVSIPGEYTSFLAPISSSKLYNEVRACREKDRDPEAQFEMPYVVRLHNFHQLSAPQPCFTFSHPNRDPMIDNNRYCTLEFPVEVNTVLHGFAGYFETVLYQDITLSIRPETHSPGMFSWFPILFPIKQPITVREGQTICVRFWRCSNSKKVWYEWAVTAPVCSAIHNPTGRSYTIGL
# Chain of Flag-AtRDR1 (Arabidopsis thaliana RNA-dependent RNA polymerase 1 with Flag tag) (Q9LQV2 whole entry): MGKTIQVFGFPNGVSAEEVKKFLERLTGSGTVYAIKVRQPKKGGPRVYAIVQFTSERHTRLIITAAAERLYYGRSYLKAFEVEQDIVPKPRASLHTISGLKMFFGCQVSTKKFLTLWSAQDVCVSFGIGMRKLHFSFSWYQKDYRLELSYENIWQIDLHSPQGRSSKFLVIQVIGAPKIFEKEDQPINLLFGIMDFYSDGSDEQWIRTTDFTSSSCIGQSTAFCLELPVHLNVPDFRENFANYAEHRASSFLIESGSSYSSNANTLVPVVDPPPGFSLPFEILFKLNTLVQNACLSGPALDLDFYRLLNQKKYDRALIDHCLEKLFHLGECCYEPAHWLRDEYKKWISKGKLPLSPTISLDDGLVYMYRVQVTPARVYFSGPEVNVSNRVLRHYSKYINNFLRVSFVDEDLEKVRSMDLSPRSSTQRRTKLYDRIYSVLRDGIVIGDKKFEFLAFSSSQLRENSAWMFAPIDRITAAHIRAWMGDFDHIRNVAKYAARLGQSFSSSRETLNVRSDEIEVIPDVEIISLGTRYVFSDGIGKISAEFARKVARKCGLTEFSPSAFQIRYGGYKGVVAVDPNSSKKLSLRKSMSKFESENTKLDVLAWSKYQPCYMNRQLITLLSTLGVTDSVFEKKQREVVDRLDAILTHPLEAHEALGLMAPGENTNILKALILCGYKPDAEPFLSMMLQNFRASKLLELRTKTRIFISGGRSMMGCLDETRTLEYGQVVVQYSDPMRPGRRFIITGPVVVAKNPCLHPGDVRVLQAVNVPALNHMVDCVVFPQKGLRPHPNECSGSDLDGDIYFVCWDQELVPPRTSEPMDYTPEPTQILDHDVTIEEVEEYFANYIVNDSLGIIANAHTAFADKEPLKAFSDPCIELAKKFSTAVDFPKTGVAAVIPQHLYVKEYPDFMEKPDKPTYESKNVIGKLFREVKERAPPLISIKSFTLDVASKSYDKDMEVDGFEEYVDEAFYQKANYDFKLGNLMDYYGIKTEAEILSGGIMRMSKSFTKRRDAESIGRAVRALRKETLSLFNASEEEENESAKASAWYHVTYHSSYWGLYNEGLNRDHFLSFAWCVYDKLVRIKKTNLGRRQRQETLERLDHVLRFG
substance,measurement,setting,value
Flag-AtRDR1 (Arabidopsis thaliana RNA-dependent RNA polymerase 1 with Flag tag) (from UniProt Q9LQV2 1-1107) (enzyme),Coverage (%),[1],33%
same,Length of peptide,[1],20
same,Coverage (%),[2],20%
same,Length of peptide,[2],36
same,Coverage (%),[3],17%
same,Length of peptide,[3],10
same,Coverage (%),[4],29%
same,Length of peptide,[4],12
same,Coverage (%),[5],16%
same,Length of peptide,[5],29
same,Coverage (%),[6],12%
same,Coverage (%),[7],36%
same,Coverage (%),[8],31%
same,Length of peptide,[8],10
same,Coverage (%),[9],29%
same,Length of peptide,[9],10
same,Coverage (%),[10],25%
same,Length of peptide,[10],9
same,Coverage (%),[11],44%
same,Length of peptide,[11],10
same,Coverage (%),[12],36%
same,Coverage (%),[13],37%
same,Length of peptide,[13],17
same,Coverage (%),[14],27%
same,Length of peptide,[14],38
same,Coverage (%),[15],56%
same,Length of peptide,[15],27
same,Coverage (%),[16],9%
same,Length of peptide,[16],7
same,Coverage (%),[17],59%
same,Length of peptide,[17],31
same,Coverage (%),[18],44%
same,Length of peptide,[18],83
same,Coverage (%),[19],45%
same,Length of peptide,[19],72
same,Coverage (%),[20],46%
same,Length of peptide,[20],26
same,Coverage (%),[21],66%
"Flag-OsRDR1 (rice, Oryza sativa, RNA-dependent RNA polymerase 1 with Flag tag) (from UniProt Q0DXS3 1-740) (enzyme)",Coverage (%),[1],26%
same,Length of peptide,[1],9
same,Coverage (%),[2],12%
same,Length of peptide,[2],20
same,Coverage (%),[3],26%
same,Length of peptide,[3],13
same,Coverage (%),[22],36%
same,Length of peptide,[22],17
same,Coverage (%),[23],32%
same,Length of peptide,[23],14
same,Coverage (%),[4],37%
same,Length of peptide,[4],15
same,Coverage (%),[24],9%
same,Length of peptide,[24],16
same,Coverage (%),[6],10%
same,Length of peptide,[6],16
same,Coverage (%),[25],40%
same,Length of peptide,[25],12
same,Coverage (%),[8],35%
same,Length of peptide,[8],11
same,Coverage (%),[9],42%
same,Length of peptide,[9],15
same,Coverage (%),[10],38%
same,Length of peptide,[10],14
same,Coverage (%),[14],32%
same,Length of peptide,[14],50
same,Coverage (%),[15],68%
same,Length of peptide,[15],34
same,Coverage (%),[16],11%
same,Length of peptide,[16],9
same,Coverage (%),[17],61%
same,Length of peptide,[17],31
same,Coverage (%),[26],47%
same,Length of peptide,[26],85
same,Coverage (%),[19],48%
same,Length of peptide,[19],81
same,Coverage (%),[27],62%
same,Length of peptide,[27],19
same,Coverage (%),[28],55%
same,Length of peptide,[28],17
same,Coverage (%),[29],66%
same,Length of peptide,[29],24
same,Coverage (%),[30],66%
same,Coverage (%),[21],64%
same,Length of peptide,[21],15
